In the supplement of paper PMC9112550, “Optimization of the antimicrobial peptide Bac7 by deep mutational scanning” (BMC Biology, 2022):

system: Escherichia coli TOP10; experiment: shrunken log2 fold change of peptide-encoding DNA abundance (4.5 h post-induction vs induction); higher = less antimicrobial activity (less host growth inhibition); conditions: time post-induction: 4.5 h; library: site-saturation at positions 5, 18, 19, 20
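Further: peptides expressed intracellularly from a pBAD plasmid library in pooled LB shake-flask culture, induced with 0.3% L-arabinose, DNA abundance read by NGS, three biological replicates, DESeq2 with apeglm shrinkage.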

Going from RRIRHRPPRLPRPRPRPRAKPRP to RRIRIRPPRLPRPRPRPLNEPRP, the “shrunken log2 fold change” value falls from 1.14 to -0.497.

Compared with RRIRFRPPRLPRPRPRPEFMPRP, RRIRNRPPRLPRPRPRPAQYPRP is higher in “shrunken log2 fold change” value: -0.109 for the first, 0.103 for the second.

Compared with RRIRRRPPRLPRPRPRPNSIPRP, RRIRTRPPRLPRPRPRPYCPPRP is lower in “shrunken log2 fold change” value: -0.236 for the first, -0.821 for the second.

Going from RRIRRRPPRLPRPRPRPNVVPRP to RRIRVRPPRLPRPRPRPGRCPRP, the “shrunken log2 fold change” value rises from 0.0745 to 0.627.

Compared with RRIRYRPPRLPRPRPRPTSWPRP, RRIRCRPPRLPRPRPRPGGWPRP is higher in “shrunken log2 fold change” value: -0.138 for the first, 0.656 for the second.

Going from RRIRWRPPRLPRPRPRPNWLPRP to RRIRMRPPRLPRPRPRPAMDPRP, the “shrunken log2 fold change” value rises from 0.0255 to 1.27.

Compared with RRIRSRPPRLPRPRPRPKGWPRP, RRIRLRPPRLPRPRPRPMDFPRP is lower in “shrunken log2 fold change” value: 1.19 for the first, -0.0499 for the second.

RRIRQRPPRLPRPRPRPSCKPRP and RRIRKRPPRLPRPRPRPIMHPRP are within 0.2 log units of each other in “shrunken log2 fold change” value: -0.259 for the first, -0.204 for the second.

Going from RRIRRRPPRLPRPRPRPCVMPRP to RRIRNRPPRLPRPRPRPQFYPRP, the “shrunken log2 fold change” value falls from 0.113 to -0.475.

Compared with RRIRYRPPRLPRPRPRPWATPRP, RRIRCRPPRLPRPRPRPYIYPRP is lower in “shrunken log2 fold change” value: -0.379 for the first, -0.945 for the second.

RRIRFRPPRLPRPRPRPVANPRP and RRIRYRPPRLPRPRPRPCAIPRP are within 0.2 log units of each other in “shrunken log2 fold change” value: -0.1 for the first, -0.0633 for the second.

Compared with RRIRARPPRLPRPRPRPNAEPRP, RRIRERPPRLPRPRPRPLTYPRP is lower in “shrunken log2 fold change” value: 0.679 for the first, -0.188 for the second.

RRIRQRPPRLPRPRPRPYESPRP and RRIRTRPPRLPRPRPRPFCLPRP are within 0.2 log units of each other in “shrunken log2 fold change” value: -0.261 for the first, -0.278 for the second.

Compared with RRIRLRPPRLPRPRPRPKHCPRP, RRIRSRPPRLPRPRPRPHNGPRP is higher in “shrunken log2 fold change” value: -0.207 for the first, 0.00483 for the second.

Compared with RRIRVRPPRLPRPRPRPWCWPRP, RRIRWRPPRLPRPRPRPTMGPRP is higher in “shrunken log2 fold change” value: -0.0537 for the first, 0.272 for the second.

Going from RRIRARPPRLPRPRPRPHNGPRP to RRIRTRPPRLPRPRPRPKINPRP, the “shrunken log2 fold change” value falls from 0.0647 to -0.325.

RRIRLRPPRLPRPRPRPVMVPRP and RRIRKRPPRLPRPRPRPDMKPRP are within 0.2 log units of each other in “shrunken log2 fold change” value: -0.0863 for the first, -0.0241 for the second.

Compared with RRIRNRPPRLPRPRPRPNMHPRP, RRIRGRPPRLPRPRPRPEENPRP is higher in “shrunken log2 fold change” value: -0.433 for the first, 1.21 for the second.

Compared with RRIRHRPPRLPRPRPRPPFWPRP, RRIRDRPPRLPRPRPRPVFAPRP is higher in “shrunken log2 fold change” value: 0.0835 for the first, 0.597 for the second.

Compared with RRIRGRPPRLPRPRPRPNMVPRP, RRIRKRPPRLPRPRPRPEIHPRP is higher in “shrunken log2 fold change” value: -0.00462 for the first, 0.27 for the second.

Compared with RRIRWRPPRLPRPRPRPICYPRP, RRIRYRPPRLPRPRPRPRRVPRP is higher in “shrunken log2 fold change” value: -0.214 for the first, 0.00201 for the second.

Compared with RRIRPRPPRLPRPRPRPQDQPRP, RRIRPRPPRLPRPRPRPEAIPRP is higher in “shrunken log2 fold change” value: -0.126 for the first, 0.102 for the second.

RRIRCRPPRLPRPRPRPWMQPRP and RRIRGRPPRLPRPRPRPIPTPRP are within 0.2 log units of each other in “shrunken log2 fold change” value: -0.0437 for the first, 0.00615 for the second.

RRIRLRPPRLPRPRPRPDRNPRP and RRIRFRPPRLPRPRPRPWQYPRP are within 0.2 log units of each other in “shrunken log2 fold change” value: 0.0573 for the first, 0.0191 for the second.

RRIRIRPPRLPRPRPRPPAWPRP and RRIRSRPPRLPRPRPRPNCYPRP are within 0.2 log units of each other in “shrunken log2 fold change” value: 0.146 for the first, -0.0528 for the second.

RRIRCRPPRLPRPRPRPGRYPRP and RRIRQRPPRLPRPRPRPWNRPRP are within 0.2 log units of each other in “shrunken log2 fold change” value: 0.0533 for the first, 0.013 for the second.

RRIRSRPPRLPRPRPRPLSQPRP and RRIRCRPPRLPRPRPRPTVSPRP are within 0.2 log units of each other in “shrunken log2 fold change” value: -0.00748 for the first, 0.0953 for the second.

Compared with RRIRSRPPRLPRPRPRPPDAPRP, RRIRNRPPRLPRPRPRPGCFPRP is lower in “shrunken log2 fold change” value: 0.415 for the first, 0.126 for the second.

Compared with RRIRKRPPRLPRPRPRPWCLPRP, RRIRGRPPRLPRPRPRPPAVPRP is higher in “shrunken log2 fold change” value: -0.503 for the first, 1.27 for the second.

Compared with RRIRHRPPRLPRPRPRPTDFPRP, RRIRKRPPRLPRPRPRPNVAPRP is higher in “shrunken log2 fold change” value: -0.0704 for the first, 0.387 for the second.

RRIRTRPPRLPRPRPRPVNGPRP and RRIRIRPPRLPRPRPRPVDFPRP are within 0.2 log units of each other in “shrunken log2 fold change” value: 0.0311 for the first, -0.133 for the second.

RRIRERPPRLPRPRPRPLQYPRP and RRIRLRPPRLPRPRPRPQKPPRP are within 0.2 log units of each other in “shrunken log2 fold change” value: -0.286 for the first, -0.272 for the second.

Compared with RRIRIRPPRLPRPRPRPSWCPRP, RRIRQRPPRLPRPRPRPHSTPRP is higher in “shrunken log2 fold change” value: -0.532 for the first, -0.149 for the second.

RRIRWRPPRLPRPRPRPHEPPRP and RRIRCRPPRLPRPRPRPVQAPRP are within 0.2 log units of each other in “shrunken log2 fold change” value: 0.0371 for the first, 0.224 for the second.

First: RRIRIRPPRLPRPRPRPVMPPRP
Second: RRIRDRPPRLPRPRPRPGDYPRP
The “shrunken log2 fold change” value of the first is lower: -0.142 for the first, 0.0583 for the second.

Going from RRIRLRPPRLPRPRPRPECHPRP to RRIRPRPPRLPRPRPRPSKDPRP, the “shrunken log2 fold change” value falls from 0.0679 to -0.451.

RRIRFRPPRLPRPRPRPCGRPRP and RRIRRRPPRLPRPRPRPQRTPRP are within 0.2 log units of each other in “shrunken log2 fold change” value: 0.156 for the first, 0.152 for the second.

First: RRIRGRPPRLPRPRPRPTFCPRP
Second: RRIRLRPPRLPRPRPRPYKWPRP
The “shrunken log2 fold change” value of the first is higher: 0.46 for the first, -0.0271 for the second.

RRIRDRPPRLPRPRPRPPILPRP and RRIRQRPPRLPRPRPRPLWSPRP are the same in “shrunken log2 fold change” value: -0.147 for the first, -0.147 for the second.

RRIRYRPPRLPRPRPRPFALPRP and RRIRYRPPRLPRPRPRPTMFPRP are within 0.2 log units of each other in “shrunken log2 fold change” value: -0.133 for the first, -0.234 for the second.

RRIRIRPPRLPRPRPRPWFDPRP and RRIRPRPPRLPRPRPRPDTKPRP are within 0.2 log units of each other in “shrunken log2 fold change” value: -0.184 for the first, -0.0208 for the second.

First: RRIRCRPPRLPRPRPRPKYHPRP
Second: RRIRGRPPRLPRPRPRPCETPRP
The “shrunken log2 fold change” value of the first is lower: -0.743 for the first, 0.496 for the second.

First: RRIRFRPPRLPRPRPRPKPFPRP
Second: RRIRDRPPRLPRPRPRPKIPPRP
The “shrunken log2 fold change” value of the first is higher: 0.0515 for the first, -0.355 for the second.

First: RRIRKRPPRLPRPRPRPARPPRP
Second: RRIRQRPPRLPRPRPRPFQYPRP
The “shrunken log2 fold change” value of the first is higher: 0.575 for the first, -0.306 for the second.

RRIRPRPPRLPRPRPRPFTCPRP and RRIRIRPPRLPRPRPRPSQGPRP are within 0.2 log units of each other in “shrunken log2 fold change” value: -0.206 for the first, -0.0729 for the second.

First: RRIRNRPPRLPRPRPRPQPPPRP
Second: RRIRTRPPRLPRPRPRPIIRPRP
The “shrunken log2 fold change” value of the first is higher: 0.833 for the first, -0.0034 for the second.

Going from RRIRTRPPRLPRPRPRPLYVPRP to RRIRGRPPRLPRPRPRPNFVPRP, the “shrunken log2 fold change” value rises from -0.4 to -0.0668.

Compared with RRIRFRPPRLPRPRPRPDGCPRP, RRIRFRPPRLPRPRPRPLMAPRP is lower in “shrunken log2 fold change” value: -0.0502 for the first, -0.581 for the second.

Compared with RRIRIRPPRLPRPRPRPVWTPRP, RRIRIRPPRLPRPRPRPHQVPRP is lower in “shrunken log2 fold change” value: -0.273 for the first, -0.614 for the second.

Compared with RRIRKRPPRLPRPRPRPGMDPRP, RRIRRRPPRLPRPRPRPAPGPRP is higher in “shrunken log2 fold change” value: 0.195 for the first, 0.812 for the second.

RRIRERPPRLPRPRPRPNTKPRP and RRIRFRPPRLPRPRPRPADAPRP are within 0.2 log units of each other in “shrunken log2 fold change” value: 0.0156 for the first, 0.147 for the second.

First: RRIRNRPPRLPRPRPRPGYDPRP
Second: RRIRYRPPRLPRPRPRPVWEPRP
The “shrunken log2 fold change” value of the first is higher: 0.166 for the first, -0.3 for the second.

RRIRTRPPRLPRPRPRPLLAPRP and RRIRHRPPRLPRPRPRPDFEPRP are within 0.2 log units of each other in “shrunken log2 fold change” value: 0.282 for the first, 0.18 for the second.

RRIRPRPPRLPRPRPRPVWFPRP and RRIRLRPPRLPRPRPRPAFVPRP are within 0.2 log units of each other in “shrunken log2 fold change” value: 0.0968 for the first, 0.205 for the second.

In the case of RRIRWRPPRLPRPRPRPTDDPRP, the “shrunken log2 fold change” value is reported as -0.0402.
